Experimental data from article doi:10.1101/2025.11.10.687665.

Target: streptavidin 2 (Sav2) (Streptomyces avidinii)

“streptavidin 2 (Sav2) (domain or fragment)” gave a stoichiometry N of 4.
